In paper PMC6318249, “DNA Binding and Phosphorylation Regulate the Core Structure of the NF-κB p50 Transcription Factor” (Journal of the American Society for Mass Spectrometry, 2018):
One block for each molecule: values may come before it.

Assays:
[1] = target: Murine NF-κB p50 (39-364) S65D (murine) (UniProt P25799); assay: native MS; native IM-MS of p50 (39-364) WT and Ser to Asp variants, no DNA; 100 mM NH4OAc, typically 5 μM; percentage peak areas of monomer and dimer by multi-Gaussian fitting
[2] = target: Murine NF-κB p50 (39-364) S242D (murine) (UniProt P25799); assay: as above
[3] = target: Murine NF-κB p50 (39-364) S248D (murine) (UniProt P25799); assay: as above
[4] = target: Murine NF-κB p50 (39-364) S337D (murine) (UniProt P25799); assay: SEC; size exclusion chromatography of p50 (39-364); monomer measured by protein staining and densitometry
[5] = target: Murine NF-κB p50 (39-364) S337D (murine) (UniProt P25799); assay: native MS; native IM-MS of p50 (39-364) WT and Ser to Asp variants, no DNA; 100 mM NH4OAc, typically 5 μM; percentage peak areas of monomer and dimer by multi-Gaussian fitting
[6] = target: Murine NF-κB p50 (39-364) wild-type (murine) (UniProt P25799); assay: as above
[7] = target: p50 (35-381, Enzo Scientific) 35-381 (UniProt P19838); assay: native nESI-MS, monomer:dimer ratio, no DNA; conditions: reference: p50 before phosphorylation; sites S328,S337
[8] = target: p50 (35-381, Enzo Scientific) 35-381 (UniProt P19838); assay: native nESI-MS, monomer:dimer, with κB DNA; conditions: reference: non-phosphorylated p50 plus DNA; sites S328,S337
p50 S248D = p50 S248D (Mus musculus, UniProt P25799 39-364, S246D); assay: native MS titration; KD: 3 uM p50 with 0.2-6 uM DNA in 300 mM NH4OAc, 5 min, room temperature, 10 uL, pH not stated; native nESI-(IM-)MS; conditions: protein: recombinant; tags: His6-MBP removed by 3C protease; chain copies: 2; blunt; strand is self-complementary
p50 WT = p50 WT (Mus musculus, UniProt P25799 39-364); assay: as above; conditions: protein: recombinant; tags: His6-MBP removed by 3C protease; chain copies: 2; blunt; strand is self-complementary
p50 S65D = p50 S65D (Mus musculus, UniProt P25799 39-364, S63D); assay: as above; conditions: protein: recombinant; tags: His6-MBP removed by 3C protease; chain copies: 2; blunt; strand is self-complementary
p50 S242D = p50 S242D (Mus musculus, UniProt P25799 39-364, S240D); assay: as above; conditions: protein: recombinant; tags: His6-MBP removed by 3C protease; chain copies: 2; blunt; strand is self-complementary
p50 S337D = p50 S337D (Mus musculus, UniProt P25799 39-364, S335D); assay: as above; conditions: protein: recombinant; tags: His6-MBP removed by 3C protease; chain copies: 2; blunt; strand is self-complementary
[9] = target: the molecule itself; assay: native MS; nano-ESI native MS of p50 (35-381) before and after in vitro phosphorylation with PKAc or Chk1; 100 mM NH4OAc, typically 5 μM; without and with the κB DNA oligomer; monomer and dimer charge states compared

p50 S248D, sequence (P25799 39-364 S246D): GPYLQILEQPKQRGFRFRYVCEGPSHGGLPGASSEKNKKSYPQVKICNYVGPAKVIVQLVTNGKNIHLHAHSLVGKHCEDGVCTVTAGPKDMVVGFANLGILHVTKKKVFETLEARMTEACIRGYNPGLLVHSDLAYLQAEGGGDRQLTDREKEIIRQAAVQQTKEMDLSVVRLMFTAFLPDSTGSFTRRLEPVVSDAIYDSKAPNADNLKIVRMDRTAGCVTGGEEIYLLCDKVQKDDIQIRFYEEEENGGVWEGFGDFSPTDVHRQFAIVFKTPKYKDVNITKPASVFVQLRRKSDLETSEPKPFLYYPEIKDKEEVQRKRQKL
p50 S242D, sequence (P25799 39-364 S240D): as the sequence (P25799 39-364 S246D) above, with S202D, D208S counted along it
p50 S337D, sequence (P25799 39-364 S335D): as the sequence (P25799 39-364 S246D) above, with D208S, S297D counted along it
p50 WT, sequence (P25799 39-364): as the sequence (P25799 39-364 S246D) above, with D208S counted along it
p50 S65D, sequence (P25799 39-364 S63D): as the sequence (P25799 39-364 S246D) above, with S25D, D208S counted along it

percentage peak area of dimer [1]: 90.6%
percentage peak area of monomer [1]: 9.4%
stoichiometry N [1]: 2
Molecule: Murine NF-κB p50 (39-364) S65D (from UniProt P25799 39-364) (domain or fragment)

percentage peak area of dimer [2]: 87.6%
percentage peak area of monomer [2]: 12.4%
stoichiometry N [2]: 2
Molecule: Murine NF-κB p50 (39-364) S242D (from UniProt P25799 39-364) (domain or fragment)

percentage peak area of dimer [3]: 94.2%
percentage peak area of monomer [3]: 5.8%
stoichiometry N [3]: 2
Molecule: Murine NF-κB p50 (39-364) S248D (from UniProt P25799 39-364) (domain or fragment)

fold increase in monomer relative to WT p50 [4]: 5 fold
percentage peak area of dimer [5]: 74.8%
percentage peak area of monomer [5]: 25.2%
stoichiometry N [5]: 2
Molecule: Murine NF-κB p50 (39-364) S337D (from UniProt P25799 39-364) (domain or fragment)

percentage peak area of dimer [6]: 89.5%
percentage peak area of monomer [6]: 10.5%
stoichiometry N [6]: 2
Molecule: Murine NF-κB p50 (39-364) wild-type (from UniProt P25799 39-364) (domain or fragment)

binding against the reference [7]: weaker
Molecule: p50 (35-381, Enzo Scientific) 35-381 (from UniProt P19838) PKAc-phosphorylated p50

binding against the reference [8]: same
Molecule: p50 (35-381, Enzo Scientific) 35-381 (from UniProt P19838) PKAc-phosphorylated p50 plus DNA

B1: kB DNA oligomer (KD determination) (dsDNA)
DNA 1: CCCCCGGGGGCCCCCGGGGG
DNA 2: CCCCCGGGGGCCCCCGGGGG
Kd (p50 S248D): 112 ± 11 nM
Kd (p50 WT): 37 ± 7 nM
Kd (p50 S65D): 140 ± 16 nM
Kd (p50 S242D): 424 ± 78 nM
Kd (p50 S337D): 111 ± 15 nM

B2: NF-κB p50 (35-381), non-phosphorylated (domain or fragment, UniProt P19838 35-381, looked up)
chain: MALPTDGPYLQILEQPKQRGFRFRYVCEGPSHGGLPGASSEKNKKSYPQVKICNYVGPAKVIVQLVTNGKNIHLHAHSLVGKHCEDGICTVTAGPKDMVVGFANLGILHVTKKKVFETLEARMTEACIRGYNPGLLVHPDLAYLQAEGGGDRQLGDREKELIRQAALQQTKEMDLSVVRLMFTAFLPDSTGSFTRRLEPVVSDAIYDSKAPNASNLKIVRMDRTAGCVTGGEEIYLLCDKVQKDDIQIRFYEEEENGGVWEGFGDFSPTDVHRQFAIVFKTPKYKDINITKPASVFVQLRRKSDLETSEPKPFLYYPEIKDKEEVQRKRQKLMPNFSDSFGGGSGAG
notes: NF-κB p50, the proteolytic product of p105 (NF-κB1), residues 35-381; also called recombinant p50 (35-381); source: bought: Enzo Scientific
stoichiometry N [9]: 2
